{"source": "patent US20260133210A1", "about": "“CELL-FREE BIOSENSORS FOR IN VITRO DETECTION OF TARGET MOLECULES” (priority 2022, published 2026)", "key": {"[1]": {"system": "cell-free protein synthesis", "experiment": "Titration of analyte against an unregulated reporter plasmid (pT7-sfGFP) in a cell-free reaction", "format": "biochemical, E. coli", "conditions": "100 μM CuSO4", "protocol": "A series of tuning experiments are next used to optimize the sensor. First, the optimal concentration of the aTF (CueR) is found for the non-cascaded sensor (e.g., pCue-sfGFP) through a series of ratiometric titrations between the aTF-enriched extract and the blank extract in both the presence and absence of analyte (see e.g., the data in FIG. 7). This experiment is an isothermal cell-free gene expression reaction held at 30° C. in a plate reader for […] using an established set of physiochemical conditions to maximize protein production in general. It may also be necessary to determine the concentration of analyte that saturates the cell-free sensor without inhibiting transcription and translation in vitro, which can be done with a simple titration of analyte against an unregulated reporter plasmid (e.g., pT7-sfGFP)."}, "PbCl2": {"system": "PbCl2", "experiment": "Hand-validation of top PbrR variants from the SSM library screen", "format": "biochemical, E. coli", "conditions": "top 10 variants with the highest fold change from each lead concentration", "excerpt": "The top 10 variants with the highest fold change from each lead concentration were hand-validated to validate the results from the SSM library screen."}, "lead": {"system": "lead", "experiment": "Enriched extract PbrR lead sensors", "format": "biochemical, E. coli", "conditions": "FIG. 40 and 41", "protocol": "Enriched extract is made by pre-expressing the transcription factor in the E. coli strain before lysing to generate the extract. […] It was also determined that a catechol reporter can be used for improved sensor output. This works by having the PbrR transcription factor bind to PbrO and drive expression of an enzyme that catalyzes a colorimetric change in catechol."}}}
{"molecule": "mf-Lon", "values": [{"measurement": "decay of sfGFP signal (protein degradation) on mixing extracts", "setting": "pdt-tagged sfGFP", "value": "Increasing the concentration of mf-Lon and supplying additional ATP (a co-substrate for the reaction) results in some signal decay"}]}
{"molecule": "O=S(=O)([O-])[O-].[Cu+2]", "note": "[CuSO4]", "values": [{"measurement": "effect on cell-free protein synthesis", "setting": "[1]", "value": "shuts down cell-free protein synthesis"}]}
{"molecule": "M60F (protein, Cupriavidus metallidurans) MNIQIGELAKRTACPVVTIRFYEQEGLLPPPGRSRGNFRLYGEEHVERLQFIRHCRSLDFPLSDVRTLLSYRKRPDQDCGEVNMLLDEHIRQVESRIGALLELKHHLVELREACSGARPAQSCGILQGLSDCVCDTRGTTAHPSD", "values": [{"measurement": "behaviour in the hand-validated SSM results", "setting": "PbCl2", "value": "bind the promoter regardless of whether or not the ligand (lead) is present"}]}
{"molecule": "M60L (protein, Cupriavidus metallidurans) MNIQIGELAKRTACPVVTIRFYEQEGLLPPPGRSRGNFRLYGEEHVERLQFIRHCRSLDLPLSDVRTLLSYRKRPDQDCGEVNMLLDEHIRQVESRIGALLELKHHLVELREACSGARPAQSCGILQGLSDCVCDTRGTTAHPSD", "values": [{"measurement": "behaviour in the hand-validated SSM results", "setting": "PbCl2", "value": "promising"}]}
{"molecule": "G128I, D64K, M60L, and P61N: quadruple variant of PbrR (SEQ ID NO: 47) (protein, Cupriavidus metallidurans) MNIQIGELAKRTACPVVTIRFYEQEGLLPPPGRSRGNFRLYGEEHVERLQFIRHCRSLDLNLSKVRTLLSYRKRPDQDCGEVNMLLDEHIRQVESRIGALLELKHHLVELREACSGARPAQSCGILQILSDCVCDTRGTTAHPSD", "values": [{"measurement": "lead detection in enriched extract", "setting": "lead", "value": "can detect lead at the limit of detection"}]}
